Source: patent publication US20090130131A1
Read-outs that look alike come from different tables or passages of the source.

What was measured:
[1] = target: Influenza split vaccine A/New Caledonia/20/99 (H1N1)
[2] = target: Influenza split vaccine B/Shanghai/361/2002
[3] = target: Influenza split vaccine A/New York/55/2004 (H3N2)
[4] = target: Influenza split vaccine A/New Caledonia/20/99 (H1N1); remark: listed apart in the source
[5] = target: Influenza split vaccine A/New Caledonia/20/99 (H1N1); remark: listed apart in the source

With “Synthetic AD vehicle SSF-30 (from UniProt P07988 220-260)” the Coupling Ratio (%) [1] was 91.3%.

“Synthetic AD vehicle SSF-28 (from UniProt P07988 201-260)” showed a Coupling Ratio (%) [2] of 87.9%, a Coupling Ratio (%) [3] of 64.4% and a Coupling Ratio (%) [4] of 83%.

B1: Synthetic AD vehicle SSF-48 (peptide)
peptide: FGIPSSPVHLKRLLILKLLLLKILLLKLGALLIGL
B1 was tested, and the Coupling Ratio (%) [5] was 66.3%.

B2: Synthetic AD vehicle SSF-44 (peptide)
peptide: PVHLKRLLLLLLLLLLLLLLLL
In the case of B2, the Coupling Ratio (%) [5] is reported as 72.8%.

B3: Synthetic AD vehicle SSF-24 (peptide)
peptide: RMLPQLVCRLVLRCSMD
Work on B3 yielded a Coupling Ratio (%) [1] of 91.3%.

B4: Synthetic AD vehicle SSF-47 (peptide)
peptide: GIPFFPVHLKRLKLLLLLLLLILLLILGALLIGL
For B4, the Coupling Ratio (%) [5] was 86.9%.

B5: Synthetic AD vehicle SSF-14 (peptide)
peptide: FPIPLPYCWLCRALIKRIQAMIPKG
B5 was tested, and the Coupling Ratio (%) [1] was 57%.

B6: Synthetic AD vehicle SSF-46 (peptide)
peptide: IPCCPVHLKRLKLLLLLLLLILLLILGALLMGL
For B6, the Coupling Ratio (%) [5] was 76.2%.

B7: Synthetic AD vehicle SSF-45 (peptide)
peptide: KLLLLKLLLLKLLLLKLLLL
B7 gave a Coupling Ratio (%) [5] of 64.8%.
